Measurements reported in patent publication US20130046081A1 (SHANGHAI BIOMABS PHARMACEUTICALS, published 2013).

Biological target: T1, Recombinant Human VEGF165 Protein (human, UniProt P15692-4 27-191)
T1 construct: Bought protein (R&D)
Test: SPR (Biacore T100), VEGF165 amine-coupled to the chip, antibody in solution
Method: Affinity constant of VEGF antibody was detected using Biacore T100 system (Biacore AB, Uppsala, Sweden). VEGF165 (R&D) was covalently linked to CMS biological sensor chips (Biacore) by amino-coupling. […] After each examination, they were washed with 5 μl of 50 mM hydrochloric acid aqueous solution at a flow rate of 3 μl/min so as to wash away the residual antibodies from the immobilized ligands. The binding curves were subjected to nonlinear regression analysis using BIAevalution software (T100 evalution version 2.0, Biacore).

T1 sequence (P15692 other isoform, or with tags, fused parts or gaps limits assumed): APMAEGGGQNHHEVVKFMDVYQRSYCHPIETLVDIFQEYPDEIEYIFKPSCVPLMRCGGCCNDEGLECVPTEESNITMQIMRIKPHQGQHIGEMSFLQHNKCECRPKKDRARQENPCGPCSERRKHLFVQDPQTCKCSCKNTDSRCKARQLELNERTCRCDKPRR

B1: fully human anti-VEGF antibody 11A7 (antibody, human IgG1, kappa, V domains shown)
VH: QVQLVQSGAEVKKPGASVKVSCKASGYTFTSYDINWVRQATGQGLEWMGWMNPNSGNTGYAQKFQGRVTMTRNTSISTAYMELSSLRSEDTAVYYCARGGYSSSWYYWYFDLWGRGTLVTVSS
VL: DIQMTQSPSSLSASVGDRVTITCRASQGIRNDLGWYQQKPGKAPKRLIYAASSLQSGVPSRFSGSGSGTEFTLTISSLQPEDFATYYCLQHNSYPPVYTFGQGTKLEIKR
notes: The genes carried a signal peptide at the 5' end; also called fully human antibody 11A7
Kd: 860 pM | koff: 7.1e-05 s⁻¹ | kon: 82400 M⁻¹ s⁻¹
